We go through two molecules from paper PMC8866402, “Fortilin interacts with TGF-β1 and prevents TGF-β receptor activation” (Communications Biology, 2022).

The target in experiment [1] is T1, recombinant human Flag-tagged p53 (human, UniProt P04637 1-393).
T1 construct: p53, human; Positive control of the co-IP; also called rh-p53; source: bought: OriGene (Catalog #: TP300003)
In words: co-IP; in vitro mixture of recombinant Flag-fortilin, TGF-β1, Flag-p53 and His6-NQO2 in Buffer A (10 mM Tris pH 7.4, 100 mM NaCl, 0.01% NP-40); rabbit anti-fortilin mAb or rabbit IgG, 2 h room temperature; anti-rabbit IgG Dynabeads; four washes in Buffer B (0.3% NP-40); western blot. The note with it: both partners purified. On the technique in general: In western blotting, separated proteins are transferred to a membrane and probed.

Experiment [2] concerns the target T2, recombinant human latency-associated-peptide (LAP)-TGF-β1 protein (human, UniProt P01137 30-278).
T2 construct: TGF-β1 precursor, human; 'latency-associated-peptide (LAP)-TGF-β1'; As far as I recall, R&D Systems 246-LP is the LAP of TGF-β1 alone (about Leu30-Arg278 of the precursor), not the latent complex; also called LAP-TGF-β1 molecule; source: bought: R&D Systems (Catalog #: 246-LP-025/CF)
In words: BLI; BLItz; biotinylated rh-fortilin immobilised on streptavidin biosensors (30 μg/mL, PBS); various concentrations of analyte, 180 s association, 180 s dissociation in PBS. The following applies: both partners purified. Background: In BLI a coated tip is dipped into the sample, and binding shifts an interference pattern.

T1 sequence (P04637 whole entry): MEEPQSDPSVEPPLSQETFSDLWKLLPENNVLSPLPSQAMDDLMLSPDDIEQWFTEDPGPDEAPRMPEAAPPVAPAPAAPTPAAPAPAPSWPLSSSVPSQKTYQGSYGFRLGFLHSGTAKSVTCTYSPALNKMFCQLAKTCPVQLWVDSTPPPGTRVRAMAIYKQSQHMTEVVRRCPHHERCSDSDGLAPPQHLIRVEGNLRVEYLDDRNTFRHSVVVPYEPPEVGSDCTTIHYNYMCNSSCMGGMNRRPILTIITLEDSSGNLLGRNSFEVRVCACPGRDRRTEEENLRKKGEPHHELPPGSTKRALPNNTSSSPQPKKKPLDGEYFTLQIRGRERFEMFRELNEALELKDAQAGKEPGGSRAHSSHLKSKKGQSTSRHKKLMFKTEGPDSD
T2 sequence (P01137 30-278): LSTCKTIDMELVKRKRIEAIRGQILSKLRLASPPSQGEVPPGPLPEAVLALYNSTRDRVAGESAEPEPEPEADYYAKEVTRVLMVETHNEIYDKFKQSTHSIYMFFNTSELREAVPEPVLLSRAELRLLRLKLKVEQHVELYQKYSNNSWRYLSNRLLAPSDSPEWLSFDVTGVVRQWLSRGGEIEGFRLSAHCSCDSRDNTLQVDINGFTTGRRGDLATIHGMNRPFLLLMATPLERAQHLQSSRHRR

B1: recombinant human Flag-tagged fortilin (natural protein)
chain: MIIYRDLISHDEMFSDIYKIREIADGLCLEVEGKMVSRTEGNIDDSLIGGNASAEGPEGEGTESTVITGVDIVMNHHLQETSFTKEAYKKYIKDYMKSIKGKLEEQRPERVKPFMTGAAEQIKHILANFKNYQFFIGENMNPDGMVALLDYREDGVTPYMIFFKDGLEMEKC
notes: fortilin, human; the abstract calls fortilin a 172-amino acid protein; also called rh-fortilin; source: bought: OriGene (Catalog #: TP301664)
In the case of B1, the binding result in experiment [1] is reported as “binds”.

B2: biotinylated rh-fortilin (natural protein, human)
chain: MIIYRDLISHDEMFSDIYKIREIADGLCLEVEGKMVSRTEGNIDDSLIGGNASAEGPEGEGTESTVITGVDIVMNHHLQETSFTKEAYKKYIKDYMKSIKGKLEEQRPERVKPFMTGAAEQIKHILANFKNYQFFIGENMNPDGMVALLDYREDGVTPYMIFFKDGLEMEKC
modifications: biotin (NHS-PEG4-biotin)
notes: fortilin, human; The BLI methods say only 'rh-fortilin'; also called biotinylated fortilin; source: rh-fortilin biotinylated with NHS-PEG4-biotin and desalted
Broadly, the Kd is the free concentration of one partner at which half of the binding sites on the other are occupied at equilibrium, for simple one-to-one binding. B2: the Kd in experiment [2] came out at 930 nM.
